Source: article PMC10164081

Columns and labels:
Gαolf (human) = Gαolf (human) (UniProt P38405)
[1] = biological target: purified Ric-8B (peptide-binding thermal shift assay) (mouse) (UniProt Q80XE1); assay: differential scanning fluorimetry
purified Ric-8B (peptide-binding thermal shift assay) (mouse), sequence (Q80XE1 1-483): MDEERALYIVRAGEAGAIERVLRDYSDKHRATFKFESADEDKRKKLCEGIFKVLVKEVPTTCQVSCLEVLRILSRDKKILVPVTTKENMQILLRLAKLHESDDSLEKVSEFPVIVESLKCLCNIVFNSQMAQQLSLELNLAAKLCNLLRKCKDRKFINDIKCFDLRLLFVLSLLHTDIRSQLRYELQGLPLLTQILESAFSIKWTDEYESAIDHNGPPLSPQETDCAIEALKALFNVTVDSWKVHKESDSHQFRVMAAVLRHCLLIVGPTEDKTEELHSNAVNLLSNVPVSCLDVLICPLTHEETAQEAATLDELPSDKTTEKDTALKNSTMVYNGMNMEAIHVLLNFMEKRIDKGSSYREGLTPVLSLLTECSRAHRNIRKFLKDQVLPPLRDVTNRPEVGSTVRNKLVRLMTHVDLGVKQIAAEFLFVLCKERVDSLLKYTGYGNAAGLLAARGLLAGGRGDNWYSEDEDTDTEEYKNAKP

Gαolf (human), sequence (P38405 whole entry): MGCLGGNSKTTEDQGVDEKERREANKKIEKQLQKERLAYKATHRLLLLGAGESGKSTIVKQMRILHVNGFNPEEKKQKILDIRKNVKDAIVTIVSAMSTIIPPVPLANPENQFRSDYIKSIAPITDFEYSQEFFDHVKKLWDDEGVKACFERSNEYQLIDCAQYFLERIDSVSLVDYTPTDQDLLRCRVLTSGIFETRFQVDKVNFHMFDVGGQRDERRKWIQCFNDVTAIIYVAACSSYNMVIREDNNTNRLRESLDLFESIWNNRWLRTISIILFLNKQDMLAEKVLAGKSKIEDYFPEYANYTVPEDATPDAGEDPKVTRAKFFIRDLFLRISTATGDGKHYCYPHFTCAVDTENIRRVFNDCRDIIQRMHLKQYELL

Substance: Ric-8B with its ARM7 loop replaced by that of Ric-8A
- folding of the Gαolf-RLuc sensor (luminescence) in RIC-8B knockout HEK293T cells (Gαolf (human)): 10 % decrease

Substance: Gαs C-term amidated peptide
- maximal thermal shift (ΔTm) [1]: 3.3 °C
